Sequences and labels used below:
T1: human Ang2 protein (R&D Systems, 623-AN-01M/CF; 623-AN/CF) (human, UniProt O15123 19-496)
T1 chain: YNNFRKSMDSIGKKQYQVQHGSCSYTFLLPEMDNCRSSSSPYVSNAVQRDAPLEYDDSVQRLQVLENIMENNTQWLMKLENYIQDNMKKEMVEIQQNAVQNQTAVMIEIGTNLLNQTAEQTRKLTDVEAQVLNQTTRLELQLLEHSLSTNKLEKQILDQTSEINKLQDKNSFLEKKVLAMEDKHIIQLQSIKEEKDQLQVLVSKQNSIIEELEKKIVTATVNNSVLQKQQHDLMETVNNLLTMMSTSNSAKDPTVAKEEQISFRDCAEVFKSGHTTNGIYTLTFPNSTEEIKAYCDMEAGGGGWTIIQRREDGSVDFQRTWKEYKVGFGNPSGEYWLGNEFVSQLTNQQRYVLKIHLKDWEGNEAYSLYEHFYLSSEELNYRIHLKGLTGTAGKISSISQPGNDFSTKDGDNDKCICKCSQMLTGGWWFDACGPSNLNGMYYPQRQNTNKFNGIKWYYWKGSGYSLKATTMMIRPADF

B1: 45C5A1 (antibody, V domains shown)
VH: EVKLVESGGGLVQPGGSLKLSCAASGFTFSNYTMSWVRQTPEKRLELVAEISNSDGSAYYPDTVKGRFTISRDNAKKTLYLQMSSLKSEDTAMYYCARHGGLRVYYAIDYWGQGTSVTVSS
VL: DIQMTQSPASQSASLGESVTITCLASQTIGPWLAWYQQKPGKSPQLLIYAATSLADGVPSRFSGSGSGTKFSFKISSLQAEDFVSYYCQQLYSDPLYTFGGGTKLEMK
B2: 15H10D12 (antibody, V domains shown)
VH: DVQLQESGPGLVKPSQSLSLTCTVTGYSITSDYAWNWIRQFPGNRLEWMGYINYSGSTDYNPSLKSRISITRDTSKNQFFLQLNSVTTEDTATYYCARGVRGDMDYWGQGTSVTVSS
VL: SIVMTQTPKFLLVSAGDRVTITCKASQSVSNDVAWYQQKPGQSPKLLIYYASNRYTGVPDRFTGSGYGTDFTFTISTVQADDLAVYFCQQDYSSPFTFGSGTKLEIK
B3: 25C5D6F3 (antibody, V domains shown)
VH: EVNLVESGGGLVQPGGSLRLSCATSGFTFSDFYMEWVRQPPGKRLEWIAASRNKANDYTTEYSASVKGRFIVSRDTSQSILYLQMNALRAEDTAIYYCTRGSYTNYTWFAYWGQGTLVTVSA
VL: SIVMTQTPKFLLVSAGDRVTITCKASQSVSNDVAWYQQKPGQSPKLLIYFASNRYTGVPDRFTGSGYGTDFTFTISTVQAEDLAVYFCQQDYSSPYTFGGGTKLEIK
B4: 31E2D4 (antibody, V domains shown)
VH: QIQLVQSGPELKKPGETVKISCKASGYTLTNYGMNWVKQAPGKGLKWMGWINSYSGVPTYADDFKGRFAFSLETSASTAYLQINNLKNEDTATYFCARGENNYYGGSYDWGQGTTLTVSS
VL: SIVMTQTPKFLLVSAGDRVTITCKASQSVSNDVAWYQQKPGQSPKLLIYYASNRYTGVPDRFTGSGYGTDFTFTISTVQAEDLAVYFCQQDYSSPLTFGAGTKLELR
B5: 27H11B5 (antibody, V domains shown)
VH: DVQLQESGPGLVKPSQSLSLTCTVTGYSITSDYAWNWIRQFPGNKLEWMGYISYSGSTSYNPSLKSRISITRDTSKNQFFLQLNSVTTEDTATYYCARCVYGNYVGAMDYWGQGTSVTVSS
VL: SIVMTQTPKFLLVSAGDRVTITCKASQSVTNDVAWYQQKPGQSPKLLIYYASNRYTGVPDRFTGSGYGTDFTFTISTVQTEDLAVYFCQQDYSSPLTFGAGTKLELK
B6: 17F3E8 (antibody, V domains shown)
VH: EVQLHQSGPELVKPGASVKMSCKASGYTFTNYYIHWVKQSHGKTIEWIGYIHPNNGDTSYNQKFKDKATLTVDKSSSTAYMDLRSLTSEDSAVYYCSVVSYSHYVAGALDNWGQGTSVTVSS
VL: SIVMTQTPKFLLVSAGDRVTITCKASQSVSNDVAWYQQKPGQSPKLLIYFASNRYTGVPDRFTGSGYGTDFTFTISTVQAEDLAVYFCQQDYSSPYTFGGGTKLEIK
B7: 50H8E5C5 (antibody, V domains shown)
VH: EVQLHQSGPELVKPGASVKMSCKASGYTFTNYYMHWVKQSHGKSIEWIGYIYPNNGDTNYNQKFKGKATLTVDKSSSTAYMELRSLTSEDSAVYSCAVVSYSNYVAGAMDYWGQGTSVTVSS
VL: SIVMTQTPKFLLVSAGDRVTITCKASQSVSNDVAWYQQKPGQSPKLLIYFASNRYTGVPDRFTGSGYGTDFTFTISTVQAEDLAVYFCQQDYSSPYTFGGGTKLEIK
B8: 7F10B2 (antibody, V domains shown)
VH: EVQLQQSGPELVKPGSSVKISCKTSGYTFTDYNMDWVKQSHGKSLEWIGTINPKNGETSDNQKFKAKATLTVDKSSSTAYMELRSLTSEDSAVYYCAKNVDYSNYLFFPMDYWGQGTSVTVSS
VL: SIVMTQTPKFLLVSAGDRVTITCKASQSVSNDVAWYQQKPGQSPKLLIYYASNRFTGVPDRFTGSGYGTDFTFTITTVQAEDLAVYFCQQDYSSRTFGGGTKLEIK
B9: 33A3E2 (antibody, V domains shown)
VH: EVKLVESGGGLVQPGGSRKLSCAASGFTFSDYGMVWVRQAPGKGLEWVAYIGSGRSTIYYADTVKGRFTISRDNPKNTLFLQMSSLRSEDTAMYYCAREDNGYSYAMDYWGQGTSVTVSS
VL: DIQMTQSPASQSASLGESVTITCLTSQTIGTWLAWYQQKPGKSPQLLIYAATSLADGVPSRFSGSGSGTKFSFKISSLQAEDFVSYYCQQLYSIPLTFGAGTKLELK
B10: 39C1C4 (antibody, V domains shown)
VH: EVKLVESGGGLVQPGGSRKLSCAASGFTFSDYGMVWVRQAPGKGLEWVAYIGSGRNTIYYADTVKGRFTISRDNPKNTLFLQMSSLRSEDTAMYYCVREDNGYSYAMDYWGQGTSVTVSS
VL: DIQMTQSPASQSASLGESVTITCLASQTIGTWLAWYQQKPGKSPQLLIYAATSLADGVPSRFSGSGSGTKFSFKISSLQAEDFVSYYCQQLYSIPLTFGAGTKLELK
B11: 49B8G4 (antibody, V domains shown)
VH: EVKLVESGGGLVQPGGSRKLSCAASGFTFSDYGMVWVRQAPGKGLEWIAYIGSGRNTIYYADTVKGRFTISRDNPKNTLFLQMSSLRSEDTAMYYCAREDNGYSYAMDYWGQGTSVTVSS
VL: DIQMTQSPASQSASLGESVTVTCLASQTIGTWLAWYQQKPGKSPQLLIYAATSLADGVPSRFSGSGSGTKFSFKISSLQAEDFGSYYCQQLYSIPLTFGVGTKLELK
B12: 15B4C6 (antibody, V domains shown)
VH: QVQLKESGPGLVAPSQSLSITCTVSGFSLNGYGVNWVRQPPGKGLEWLGLIWNNGSTDYNSALKSRLTISKDNSKSLVFLKMNSLQTDDTARYYCARDPLYLLRGAMDYWGQGTSVTVSS
VL: DIVLTQSPASLTVSLGQRATISCRASKSVSSSGYNFIYWYQQKPGQPPKLLIYLASNLESGVPARFSGSGSGTDFTLNIHPVEEEDAATYYCQHSRDLPLTFGAGTKLELK

As usually defined, the EC50 is the concentration needed to bring the measured effect to its halfway point. A low value points to an effect from little substance.

This experiment has as its target T1, human Ang2 protein (R&D Systems, …). The experiment is described as follows: ELISA. On the technique in general: An ELISA detects its analyte on a solid surface through an enzyme-linked reagent.
As to B1, the response was half-maximal at 7.03 ng/mL (EC50).
Molecule B2 registered an EC50 of 9.28 ng/mL.
With B3 the figure was 17.6 ng/mL; with B4, 6.6 ng/mL.
B5 displayed an EC50 of 9.97 ng/mL.
B6 registered an EC50 of 12.2 ng/mL.
The molecule B7 gave an EC50 of 66.2 ng/mL.
Take B8: the EC50 came out at 4.62 ng/mL.
Regarding B9, the EC50 worked out at 5.59 ng/mL.
The molecule B10 returned an EC50 of 4.47 ng/mL.
B11: the EC50 was found to be 4.57 ng/mL.
The molecule B12 showed an EC50 of 11.2 ng/mL.

The values above are taken from patent US20230312698A1 (NANJING GENSCRIPT BIOTECH, published 2023).
